These results are taken from publication PMC7760923.

One series concerns P12643. The series is described as follows: dynamic light scattering (DLS); BMP-2 in MES buffer pH 5, 25 °C, 173°; association of BMP-2 dimers to aggregates. The conditions noted are these: other: dynamic light scattering (DLS).
In series [1] the target is E. coli-derived recombinant human bone morphogenetic protein 2 (rhBMP-2) (human) (UniProt P12643). Briefly: native gel or EMSA; blue native PAGE of BMP-2 solutions, Western blot with anti-BMP-2 and silver stain; oligomers of the disulfide-bridged 26 kDa dimer. For orientation: Mobility shift assays separate free from complexed probe on a gel.

“And” between values parts separate entries of the source, which are not always exact repeats. Equal entries are not always repeated.

E. coli-derived recombinant human bone morphogenetic protein 2 (rhBMP-2), sequence (P12643 283-396 limits assumed): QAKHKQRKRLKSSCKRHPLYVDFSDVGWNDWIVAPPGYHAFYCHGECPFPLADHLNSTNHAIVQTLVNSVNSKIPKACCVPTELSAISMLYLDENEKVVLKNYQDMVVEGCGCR

With “E. coli-derived recombinant human bone morphogenetic protein 2 (rhBMP-2)”, in the series on P12643, the “percent of BMP-2 in larger aggregates (DLS)” value is 3% was apparently in the form of larger aggregates.
Take “E. coli-derived recombinant human bone morphogenetic protein 2 (rhBMP-2) (from UniProt P12643 24-396) (ligand)”: the stoichiometry N (26 kDa BMP-2 dimers) in series [1] is 2 and 4.
